# Reference: PMC8420761
# Target: Mycobacterium tuberculosis H37Rv HigA2 antitoxin (Mycobacterium tuberculosis H37Rv) (UniProt O53467)
# Assay: not stated; in solution; purified MtHigA2
substance,measurement,value
Mycobacterium tuberculosis H37Rv HigA2 antitoxin (from UniProt O53467 1-101) (natural protein),stoichiometry N,2
